In a protein production outcome set (Wang et al. 2014):

Experiment: label from the status in PepcDB records

For “MSFDPIYFLTPIIVMVFSFGMVYKLVKSIKVLMFSALAYFIAIVLKVLVQFFTLGYLASINSLAVLGLYYGLQTSIFEVGLAYVFALLGKLKNGWGYGVSLAMWENGVLISIPTLFIYIAYYFFPLILSTPSQLEYPITQALPLIGLSILERVSSLLIHSSWGYLSVLSVITGRKRLILVAFPMGFVDFLVPFEKYLGILTFEFIFFCIGLICLVMAWSLGKYYRSTSSKDT”, the protein production was “failed”.
In the case of “MSFDRNLCKVLVADDSRLVTSSVTAILRQLDLSDIYYAYKPFEVINLCKQMHFDLVICDYNFQTQLNGFQLLEELKHAQILPAHTTFVFLTGENDHKIVRSIVDCDPDDYLLKPFNHTFFRNRLLSAMKRRSVLLPIYEKLREMDFEGVIEATDTLLPFHPEYSKLIRRYRAHAMVQNKQFSSARSEYEKLLKEDNFDWIKTALANTLIETDNLEKAQEVLESLSSKKENPYYHDEMSNMAVLSEDIPKAIKHLKQSTMLLDAGSERELVITNLSLASESYDDAVTYIKRYYEKNENTFRGGIFTKLNFVRCHLYRSLNAPSNQCFENLLFGLNPLIGEIEKNSQFKAQFALIDAHIALIRGDLKAAISQVRAVLASNQLSHFYDLYHLCVLLERCSFLSEMKSMLPRARRAIAEAQHPSIFRSQVHMLKSLEMRLQESQTKIEQIRRQITAQKSISTSAITPHFDRYFQLHDLLPHSKKICLAIVRLASLRPFEYRGEYAIYRKLEHCDRVIRNLCDNRELQSIKYNNMYQYAKQNITVSNG”, the protein production is reported as “failed”.
For “MSFLKPKTHIEKGDVVILYLSVSSMHAIEAVPEIVNKKGETIPHIFQTNYGSLKVENIIGVEYGSKVELSKGWAHVLQPTPELWTQTLPHRTQIIYTPDISMIIHQLEVRPGAVVVESGTGSGSLSHYFLRALKPTGHLHTFDFHEARADQARDEFRRHGIADFVTVYHRDVCNLGFGAELDGKADAVFLDLPAPDLAVPHAFKALKLSGGRFCSFSPCIEQSQRCIQELTKLGFNEIVSLEVLQQENVVKTRTLPVIDLEFLKLPKTDETTAATNALESKAPKEVKKYLTSSNPQTLPGHTGFLTFATLPPNIPKA”, the protein production was “failed”.
With “MSFRTGERRIWDATATLEALGAADVALWIWEPETDRLRLNGAARALGLGPLAPECSSAAFRALALPQDRAQAEEVLKPREPGSEVVARFRVRGGETCLWRGVWLEEGVRAAGVVAPETKFSASELCDLTGLLDRRSFLARARERLAQEGTHQLVVADLDRLRRLNEALGHERADLVLAALGSRLAAAFPAQSILGRIGEDEFAVLCQPLGYEPSDVLRSALEQPLRVAGFDIHPTLSIGAVSAEGGLDAPDAAELLRRAELAVEAAAAAGRGGAAAYGRAMETDGLSRLALEADLRGAIGRGEITPYFQPIVRLSTGALSGFEALARWIHPRRGMLPPDEFLPLIEEMGLMSELGAHMMHAAAQQLSTWRAAHPAMGNLTVSVNLSTGEIDRPGLVADVAETLRVNRLPRGALKLEVTESDIMRDPERAAVILKTLRDAGAGLALDDFGTGFSSLSYLTRLPFDTLKIDRYFVRTMGNNAGSAKIVRSVVKLGQDLDLEVVAEGVENAEMAHALQSLGCDYGQGFGYAPALSPQEAEVYLNEAYVDGAAPVKARG” the protein production was “failed”.
In the case of “MSFSADALEGGLSSLKLAADKYRSILNDEKTGNIRWRYGGPPIFDTVNKLFEEERTHVQWRYDNPPDFNSVNQLFEEGQTKVWPEGSLEETVQNAIKSWEMEFSHKIRLQDFKTINPEKFKLFVNGREGLSAEETLRLGSYNALLKNSLPEEFQYYKPEEESFESSHDAFRSALPRGFAWEILSVYSGPPVIAFKFRHWGYFEGTFKGHAPTGEMVQFLGLGVLKVDESLRAEEIEIYYDPGELFGGLLKGPPISETKTTDSGDNTAEKQSCPFTH”, the protein production is reported as “failed”.
For “MSFSDSESSSHGGGGGDYKFFRQISRDRLLHEMLGSTKTGDSKAWKILIMDRVTVKVMSQSCKMADITDQGISLVEELFKRREPMPGMDAIYFIQPSKENIVMFLSDMSGREPLYRKAFIFFSSTIPKELVNHIKSDSSVLPRIGALREMNMEYFPIDNQGFLTDHEQALETLYAEDAENSRHFHICLNIMATRIATVFASLKELPFVRYRAAKSTASRDLVPSKLAAAIWDCISKYKAIPNFPQTETCELLIVDRSVDQVLRLIYYIYSSSPY”, the protein production was “failed”.
With “MSFSLWLLVLGCILLTLGLASAYLRLLPVSTSFIYLLFGLAIGPAGLHAWRSGLADISGWFEHLSEAALLISLFIGGLKLRLPLRSPAWTAAWLLAGPVLLGCILGLTLGAHFLFGLDWGLALLVAAILAPTDPVLASDIQVNHAGDDDRLRYAVSGEAGLNDGIAFPFVIAALLLIGQGGGLPGEFDRSGLDWLLRDVLWAIPLGLLVGYCLGHGLGRLAIHLRARHTDTSVSANDFLALALIALSYVGADALGGWGFLASFAAGIGLRHAEVATLGRASAPAEAQAAAADVREAGQASGAIEYGADRSEHPKVAAGAVMLDVLSFGNLLERSLEVLLVTLLGAMLYQHWDWRALPLALLLFCVCRPAMVWLLVGRRLMHPAQRRLLGWFGIRGIGSLYYLSYALNQGLPTALAHTASDLVLSLVALSICVHGLSIQPLLMRHARSVSRRDRE” the protein production was “failed”.
With “MSFVAGVIRRLDETVVNRIAAGEVIQRPANAIKEMIENCLDAKSTSIQVIVKEGGLKLIQIQDNGTGIRKEDLDIVCERFTTSKLQSFEDLASISTYGFRGEALASISHVAHVTITTKTADGKCAYRASYSDGKLKAPPKPCAGNQGTQITVEDLFYNIATRRKALKNPSEEYGKILEVVGRYSVHNAGISFSVKKQGETVADVRTLPNASTVDNIRSIFGNAVSRELIEIGCEDKTLAFKMNGYISNANYSVKKCIFLLFINHRLVESTSLRKAIETVYAAYLPKNTHPFLYLSLEISPQNVDVNVHPTKHEVHFLHEESILERVQQHIESKLLGSNSSRMYFTQTLLPGLAGPSGEMVK” the protein production was “failed”.
For “MSGAGKKIADVAFKASRTIDWDGMAKVLVTDEARREFSNLRRAFDEVNTQLQTKFSQEPEPIDWDYYRKGIGAGIVDKYKEAYDSIEIPKYVDKVTPEYKPKFDALLVELKEAEQKSLKESERLEKEIADVQEISKKLSTMTADEYFEKHPELKKKFDDEIRNDNWGY”, the protein production was “failed”.
For “MSGDEAVAAPVVPPVAEAAVIPEDMDVSTALELTVRKSRAYGGVVRGLHESAKLIEKRNAQLCVLAEDCNQPDYVKLVKALCADHSIKLLTVPSAKTLGEWAGLCKIDSEGNARKVVGCSCLVIKDFGEETTALNIVKKHLDSN”, the protein production was “failed”.
In the case of “MSGDFDTIRDASSPDEVQLVRLLEEKIKSLQIEIENLRKELNYYKAEMEKMLSPPLIEAVVLDVLPDGRVLVRSSSGPNLVVNIASHIDQKLIKPGISVALNQRGSTILEVLPQKE”, the protein production is reported as “not failed”.
In the case of “MSGGQQERHVLILNTVGGRRAIALEAAAYSLGRDESNAIVIDFETVSRQHAILLRVPVPGTTSYRYRLVDGNANGKPSTNGTFVNGKRISSHELQHGDVILFGRKAKASYLLLSMADTEFSQYLQSIAFQSIKSDLRGAKETLVGMELSGELRRTPNRELEHHHHHH”, the protein production is reported as “not failed”.
With “MSGKNEADSKDTGWEQIKDKGKIVVATSGTLYPTSYHDTDSGSDKLTGYEVEVVREAAKRLGLKVEFKEMGIDGMLTAVNSGQVDAAANDIDVTKDREEKFAFSTPYKYSYGTAIVRKDDLSGIKTLKDLKGKKAAGAATTVYMEVARKYGAKEVIYDNATNEQYLKDVANGRTDVILNDYYLQTLALAAFPDLNITIHPDIKYMPNKQALVMKKSNAALQKKMNEALKEMSKDGSLTKLSKQFFNKADVSKKIDADVQDVDLLEHHHHHH” the protein production was “not failed”.
For “MSGKSSPLSVLEYLAIFAIIMTWGINNAAAKVATAYLPPMTVGGLRFLAALVFLFPFIRPPFPEPKKLAAIVLLTGPIHFGLVYVGFGMGQSLSPLVVASQLWIPFTALVAWKLLGETMRLPAVLGLIVAFVGVAWMTLDPHTSGDLPAIVLIVLASACWAVATILVRMTPGAKPLKVQAVTALFAAPSLLAMSFAFETQVVERVMTAPPIAWACVIFAGVVSTIGASALLFWLVQRREAGRVTPYFLLTPLVSCTLGVAFLGDKLTPQLLIGGAATMVGVALVAMTEKRARAEEALAETA”, the protein production was “failed”.
For “MSGLDATIINTAIPAIVSDLHGIQYMGWIVACFLLGMSVSVPIWSKLGERMGNKFAFELSLVLFILGSVLEGVAPDIYFFLISRVLMGVGAGGMGSLPYVIVGFIYPNIKRRTVILSYIAASFSAACIAGPLVGGWIVDALSWHWVFYINVPLGLISIILSIAFYRDAHKSKEKVQFDKMGAFTLIAGLTCFLIGIQMLGLASNVMVALFVIVGIILLISFIFIEKKAKSPIVPLSVFLNKALVGDFVLFALAWGAYIAVNTYLPMWSQAILGTSALIGGMTLIPNSILDIAGSQTAPYFLRRFSNYHLLIVDFTLIAITILGLILVPLNTSYWILMLIAAFSGLGVGSIFVILQIKVQIDASEKDMAPATSLSFLIRILAQTIMAAIYGVIMNLALARGIAGHRGITMTMMNKLSDAESAKSLPTAMLPTMRTIFHSGIIEIMCVALFLVVCAYVINFIYNRKEAKKVAE”, the protein production was “failed”.
With “MSGLLSIFDLSDERGVLRTSIAVTFVISFLGIGFGLFSGSFSIVFDGVYSLIDAGMSLLSLIVVNLITSYAVADHLSRKLRERFSFGLWHLEPMVLGLNGILLISAALYALVTAIGSLLSGGRDLEFGSALIYAAVTVIACAGIAAVEWRANRKIGSEFLRLDVRGWIMSAGISAALLIAFMIGLAVQGTSWQWISPYIDPAVLAAVCVLIIPLPVSTVRQALADIFLVTPVDLKKHLDTVAAAFVAKHGFVSYRAYVARVGRSKEIELYFIVPADAPARTIGEWDMLRDEIGDLVGDDGPNRWLTVVFTGDPEWAE” the protein production was “failed”.
For “MSGRYEIRFSGAGGQGLILAGVIMAEAASIYDGKQAVQSQSYGPEARGGASKSEVIISDGPVDYPKATQCDALLALTQEACDKYSADLKEGGVLLVDSDLVTKLPPGNYQTTAFNIINTAKNDVGREIVANIVALGAMVALTGVVSKEAAEKAVLSRVPEAFVELNRKAFQMGFEKALAAKK”, the protein production was “failed”.
With “MSGSLLLLFVFLSAFLAPPLSRLLRMPVPVGELVIGLLLGHFLAQGVALPEILGFLADFGFLLLMFLAGLEVDFNLLRQLERRHFVFYALYVVGMFLGAGLLAGLLGVGLAQALILALVSIGLMVATLRDMGILGRAFAKRVLILGVLGEVASLFGLTAMEKAAHYQGLLSLLKEVGIIALFFLLLFLAFRLAGLFLWWYPEVGRRLVYEEDPSAMGIRLSLALMFAAAVMSGLVGLESVLGAFLAGMILSYFLQKKHDLEAKLSAMGYGFLIPIFFIRTGMGIDLSGLDGRLLLEVGQALLLMLLIRLLPAPFLLLGGFRLREAFLAALLLAYPFTLMIAGTEIARSAHLLDERAALVLLLAAALSSLLFPWTAKMLLRFLR” the protein production was “failed”.
For “MSGVASGKTAIKSTAKVLSFVVQKHWATRLHYDFRLELEGTMKSWAVPKGPSFDPNDKRMAVHVEDHPISYNSFEGEIPSGQYGAGKVIIWDKGTWIPLEDPHKGYRDGKLKFELRGLKLKGHWALVRMRKEENKKQEPWLLIKEKDEYVRSSREYSVVDEMPDSVAELEHHHHHH”, the protein production was “failed”.
For “MSHDRSVNVSHDAVIAKPERGTMLQSFSPRSHGSKGYSLPQDSEENRGSVGQSAGQSSTSVVDQVRSPADDAGVTSSSTICPAPVCRQFWKAGSYNDELSSKSQQPNGKNYLHVHPMFLHSNATSHKWAFGAVAELLDNAVDEIQNGATFVIVDKTTNPRDGATALLIQDDGGGMDPQAMRHCMGFGFSDKKSDSAIGRYGNGFKTSTMRLGADVIVFSRHSKNQTLTQSIGLLSYTYLTRTGHDRIVVPILDYEFNASAGEFKTLQDREHFISSLSILLEWSPFSTEAELLQQFDDVGPHGTKVIIYNMWLNSDAKLELDFDSVAEDILIEGSIKKTGSKIVNDHIASRFSYSLRVYLSILYLRIPETFKIILRGKVVEHHNVADDLMHPQYILYKPQAAGSEEALVVTTIGFLKEAPKVNLHGFCVYHKNRLIMPFWQVINYSSSRGRGVVGVLEANFVEPTHNKQDFEKTVLLQKLENRLKEMTVEYWSCHCVLIGYQVNKKPRLQIPQKVQPAGRQALSPPPGFQAVFPQGNTTSLPRVSTQPVLLEKRKEHPDSVASAALKRKVGNDDFTVPGHIRVEQFIHGSASQSQDIETVKLMEENKKLRAKCLDRKVRSQNLEVKAMNLRSELENYKSEYERLMVELQALDLVKDEHRRNVNT”, the protein production was “failed”.
